This note sets out measurements from patent publication US20250019450A1 (DIAGONAL THERAPEUTICS, published 2025).

The chains are these.
B1: DGL407 (bispecific antibody, human IgG1, kappa)
heavy 1: not shown
heavy 2: QVQLVESGGGLVRPGGSLRLSCAASGFTFSSNGMHWFRQAPGKGLEWVSSIGSGGTSIYYADSVKGRFTISRDNAKNTLYLQMNSLKSDDTAVYYCSKEVTGATRGQGTQVTVEPKSSDKTHTCPPCPAPEAAGAPSVFLFPPKPKDTLMISRTPEVTCVVVDVSHEDPEVKFNWYVDGVEVHNAKTKPREEQYNSTYRVVSVLTVLHQDWLNGKEYKCKVSNKALPAPIEKTISKAKGQPREPQVCTLPPSRDELTKNQVSLSCAVKGFYPSDIAVEWESNGQPENNYKTTPPVLDSDGSFFLVSKLTVDKSRWQQGNVFSCSVMHEALHNRFTQKSLSLSPG
light: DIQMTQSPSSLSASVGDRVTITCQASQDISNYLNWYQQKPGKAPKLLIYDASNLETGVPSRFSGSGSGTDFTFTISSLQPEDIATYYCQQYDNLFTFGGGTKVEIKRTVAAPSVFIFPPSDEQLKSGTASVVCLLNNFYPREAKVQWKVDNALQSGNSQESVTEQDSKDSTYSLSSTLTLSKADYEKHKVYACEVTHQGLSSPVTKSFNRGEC
B2: DGL571 (bispecific antibody, V domains shown)
V domain 1: QVQLVESGGGLVQAGGSLRLSCAASRSISSFNEMAWYRQAPGEQRELVATIVSTVGFTNYADSVKGRFTISRDNAKNTVYLQMNSLKAEDTAVYYCNARRISTDYWGQGTQVTVEP
V domain 2: QVQLVESGGGLVQPGGSLRLSCAASGFTFSNYAMSWIRQGPERGFEWVSRINSGGGTTSYADSVKGRFTISRDNAKNTLYLQMNSLKPEDTAVYYCAKHSHPDYSSNYYRPGQGTQVTVEP
B3: DGL547 (bispecific antibody, V domains shown)
V domain 1: EVQLVESGGGLVQPGGSLRLSCAASGFTLDYYAIGWFRQAPGKEREGVSCISSSDRSTWYADSVKGRFTISRDNAKNTVYLQMHSLKPEDTAVYYCATPCYSDYDPEGYEYDYWGQGTQVTVEP
V domain 2: QLQLVESGGGLVQAGGSLRLSCAASGLTFSGYTVGWFRQAPGKEREFVAAINWSSAYTYSEFVKGRFTISRDNAKNTVYLQMSSLKPEDTAVYYCAAQRSRTSWYASTAEAYDYWGQGTQVTVEP
B4: DGL545 (bispecific antibody, V domains shown)
V domain 1: QVQLVESGGGAVQAGGSLRLSCAASGLTSRHYVMAWFRQAPGIEREFVASIWWGGSTYYADSVKDRFTISRDNAENTVYLQMNSLKPEDTAVYRCAVGTKIGTMGPRYDYWGQGTQVTVEP
V domain 2: QVQLVESGGGLVQAGGSLRLSCAASGRTFSSYAMGWFRQAPGKEREFVSAISWSGLSTYYVESVQGRFTISRDNAKNTVYLQMNSLKPEDTAVYYCAASRIYTNYVARSYEYDDWGQGTQVTVEP
B5: DGL408 (bispecific antibody, human IgG1, kappa)
heavy 1: not shown
heavy 2: QVQLVESGGGLVQPGGSLRLSCAASGFTFSNYAMSWVRQAPGKGLEWVSAINSDGTSTSYADSVKGQFTISRDNAKNTLYLQMNSLKPEDTAVYYCTKWEGDTDSDYKFKDYWGQGTQVTVEPKSSDKTHTCPPCPAPEAAGAPSVFLFPPKPKDTLMISRTPEVTCVVVDVSHEDPEVKFNWYVDGVEVHNAKTKPREEQYNSTYRVVSVLTVLHQDWLNGKEYKCKVSNKALPAPIEKTISKAKGQPREPQVCTLPPSRDELTKNQVSLSCAVKGFYPSDIAVEWESNGQPENNYKTTPPVLDSDGSFFLVSKLTVDKSRWQQGNVFSCSVMHEALHNRFTQKSLSLSPG
light: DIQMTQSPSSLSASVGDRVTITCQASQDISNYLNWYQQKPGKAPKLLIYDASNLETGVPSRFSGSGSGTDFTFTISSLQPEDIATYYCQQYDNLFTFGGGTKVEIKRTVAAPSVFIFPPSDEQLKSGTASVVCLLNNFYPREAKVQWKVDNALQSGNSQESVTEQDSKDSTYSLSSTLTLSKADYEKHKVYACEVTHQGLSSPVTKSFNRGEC
B6: DGL430 (bispecific antibody, human IgG1, lambda)
heavy 1: not shown
heavy 2: QVHLQESGPGLVKPSETLSLTCTVSGGSISYYYWNWIRQPPGKGLEWIASIYNSGNINYNPSLKSRVTISVDTSKNQFSLKLTSVTAADTAVYYCARGGYSYGYFDNWGQGILVTVSSASTKGPSVFPLAPSSKSTSGGTAALGCLVKDYFPEPVTVSWNSGALTSGVHTFPAVLQSSGLYSLSSVVTVPSSSLGTQTYICNVNHKPSNTKVDKKVEPKSCDKTHTCPPCPAPEAAGAPSVFLFPPKPKDTLMISRTPEVTCVVVDVSHEDPEVKFNWYVDGVEVHNAKTKPREEQYNSTYRVVSVLTVLHQDWLNGKEYKCKVSNKALPAPIEKTISKAKGQPREPQVCTLPPSRDELTKNQVSLSCAVKGFYPSDIAVEWESNGQPENNYKTTPPVLDSDGSFFLVSKLTVDKSRWQQGNVFSCSVMHEALHNRFTQKSLSLSPG
light: SYELTQPPSVSVSPGQTASITCSGRELGNKYAYWYQQKPGQSPVLVIYEDYKRPSGIPERFSGSNSGNTATLTISGTQAMDEADYYCQAWDSSTVIFGGGTKLTVLGQPKAAPSVTLFPPSSEELQANKATLVCLISDFYPGAVTVAWKADSSPVKAGVETTTPSKQSNNKYAASSYLSLTPEQWKSHRSYSCQVTHEGSTVEKTVAPTECS
B7: DGL400 (bispecific antibody, human IgG1, kappa)
heavy 1: not shown
heavy 2: QVQLVESGGGLVQAGGSLRLSCAASGRTFSRYRMGWFRQAPGKEREFVAAITKSGATTYDADSVKGRFTISRDNAKNTLYLQMNSLKPEDTAVYYCAASYHSNWWPKNADEYAYWGQGTQVTVEPKSSDKTHTCPPCPAPEAAGAPSVFLFPPKPKDTLMISRTPEVTCVVVDVSHEDPEVKFNWYVDGVEVHNAKTKPREEQYNSTYRVVSVLTVLHQDWLNGKEYKCKVSNKALPAPIEKTISKAKGQPREPQVCTLPPSRDELTKNQVSLSCAVKGFYPSDIAVEWESNGQPENNYKTTPPVLDSDGSFFLVSKLTVDKSRWQQGNVFSCSVMHEALHNRFTQKSLSLSPG
light: DIQLTQSPSFLSASVGDRVTITCRASQGISSYLAWYQQKPGKAPKVLIYAASTLQSGVPSRFSGSGSGTEFTLTISSLLPEDFATYFCQQLHRYPYTFGQGAKLEIKRTVAAPSVFIFPPSDEQLKSGTASVVCLLNNFYPREAKVQWKVDNALQSGNSQESVTEQDSKDSTYSLSSTLTLSKADYEKHKVYACEVTHQGLSSPVTKSFNRGEC
B8: DGL398 (bispecific antibody, human IgG1, kappa)
heavy 1: not shown
heavy 2: QVQLVESGGGLVQAGGSLRLSCAASGRTFSSYAMGWFRQAPGKEREFVSAISWSGLSTYYVESVQGRFTISRDNAKNTVYLQMNSLKPEDTAVYYCAASRIYTNYVARSYEYDDWGQGTQVTVEPKSSDKTHTCPPCPAPEAAGAPSVFLFPPKPKDTLMISRTPEVTCVVVDVSHEDPEVKFNWYVDGVEVHNAKTKPREEQYNSTYRVVSVLTVLHQDWLNGKEYKCKVSNKALPAPIEKTISKAKGQPREPQVCTLPPSRDELTKNQVSLSCAVKGFYPSDIAVEWESNGQPENNYKTTPPVLDSDGSFFLVSKLTVDKSRWQQGNVFSCSVMHEALHNRFTQKSLSLSPG
light: DIQLTQSPSFLSASVGDRVTITCRASQGISSYLAWYQQQPGKPPKLLIYAASTLHSGVPSRFSGSGSGTEFTLTISSLQPEDFATYYCQQLNRYPYTCGQGTKLEIKRTVAAPSVFIFPPSDEQLKSGTASVVCLLNNFYPREAKVQWKVDNALQSGNSQESVTEQDSKDSTYSLSSTLTLSKADYEKHKVYACEVTHQGLSSPVTKSFNRGEC
B9: DGL465 (bispecific antibody, V domains shown)
V domain 1: QVQLVESGGGLVQAGGSLRLSCAASGRAFSRYSMGWFRQAPGKEREFVAANYWSNGWTDYADTVKGRFSISRDNAKNTVYLQMNSLKPEDTAVYYCAGRSSSIPSADVVGYDYWGQGTQVTVEP
V domain 2: QVQLVESGGGLVQPGGSLRLSCAASGFTFEPYDMSWFRQAPGKGPEWVSAIDKGGGAGATYYADSVKGRFTISRDNAKKTLYLQMKSLKPEDTAVYYCAITAGPYSDSTPRVAYRGEGTQVTVEP
B10: DGL425 (bispecific antibody, human IgG1, kappa)
heavy 1: not shown
heavy 2: EVQLVQSGTEVKKPGESLKISCKGSGYSFTSYWIGWVRQMPGKGLEWMGNIYPGDSDTRYSPSFQGHVTISADKSISTAYLQWSSLKASDTAMYYCARRGGGYWGQGTLVTVSSASTKGPSVFPLAPSSKSTSGGTAALGCLVKDYFPEPVTVSWNSGALTSGVHTFPAVLQSSGLYSLSSVVTVPSSSLGTQTYICNVNHKPSNTKVDKKVEPKSCDKTHTCPPCPAPEAAGAPSVFLFPPKPKDTLMISRTPEVTCVVVDVSHEDPEVKFNWYVDGVEVHNAKTKPREEQYNSTYRVVSVLTVLHQDWLNGKEYKCKVSNKALPAPIEKTISKAKGQPREPQVCTLPPSRDELTKNQVSLSCAVKGFYPSDIAVEWESNGQPENNYKTTPPVLDSDGSFFLVSKLTVDKSRWQQGNVFSCSVMHEALHNRFTQKSLSLSPG
light: not shown

The target of this assay is human IL-12 receptor (IL-12Rβ1 and IL-12Rβ2) on HEK-Blue IL-12 cells (human, UniProt P42701 24-662; Q99665 24-862). Briefly: cell-based or functional assay.
Sequence of human IL-12 receptor (IL-12Rβ1 and IL-12Rβ2) on HEK-Blue IL-12 cells (Q99665 24-862, chain 2 of 2, other chains not shown): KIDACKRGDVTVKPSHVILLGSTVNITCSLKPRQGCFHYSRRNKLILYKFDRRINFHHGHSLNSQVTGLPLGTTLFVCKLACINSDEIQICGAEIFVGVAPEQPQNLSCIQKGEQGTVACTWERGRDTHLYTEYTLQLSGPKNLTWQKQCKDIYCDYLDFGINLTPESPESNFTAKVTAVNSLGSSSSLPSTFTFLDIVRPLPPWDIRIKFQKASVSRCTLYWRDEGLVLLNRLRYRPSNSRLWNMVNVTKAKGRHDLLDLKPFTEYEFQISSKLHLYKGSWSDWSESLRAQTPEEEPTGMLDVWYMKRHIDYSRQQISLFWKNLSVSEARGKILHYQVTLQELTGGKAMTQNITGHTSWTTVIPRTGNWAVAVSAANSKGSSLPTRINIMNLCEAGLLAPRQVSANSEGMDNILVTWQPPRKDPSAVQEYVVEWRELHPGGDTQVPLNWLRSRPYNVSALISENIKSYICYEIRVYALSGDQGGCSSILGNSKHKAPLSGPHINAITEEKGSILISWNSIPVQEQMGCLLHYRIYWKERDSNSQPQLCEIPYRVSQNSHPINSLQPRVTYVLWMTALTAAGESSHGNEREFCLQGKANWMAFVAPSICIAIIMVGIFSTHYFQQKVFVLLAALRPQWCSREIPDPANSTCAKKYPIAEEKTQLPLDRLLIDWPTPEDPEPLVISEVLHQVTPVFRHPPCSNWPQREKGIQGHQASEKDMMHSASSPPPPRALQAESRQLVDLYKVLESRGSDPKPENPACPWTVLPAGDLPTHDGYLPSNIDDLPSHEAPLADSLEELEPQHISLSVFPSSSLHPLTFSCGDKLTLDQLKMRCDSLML
Consider B1, for which the “Max Absorbance” value was 0.17.

In general, EC50 refers to the concentration that produces a half-maximal response. For the molecule B2, the EC50 was over 100 nM and the “Max Absorbance” value stood at 0.64.

Take B3: the “Max Absorbance” value is 0.18.

Turning to B4, the EC50 was over 100 nM and the “Max Absorbance” value stood at 0.59.

B5: the “Max Absorbance” value is 0.17.

B6: the “Max Absorbance” value was 0.21.

Consider B7, for which the “Max Absorbance” value stood at 0.21.

For B8, the “Max Absorbance” value is 0.17.

In the case of B9, the EC50 was over 100 nM and the “Max Absorbance” value was 0.69.

B10: the “Max Absorbance” value worked out at 0.19.
